β-galactosidase activity data for seven molecules are collected here from article PMC4213368, “Elucidation of a protein-protein interaction network involved in Corynebacterium glutamicum cell wall biosynthesis as determined by bacterial two-hybrid analysis” (Glycoconjugate Journal, 2014).

“And” between values parts separate entries of the source, which are not always exact repeats. Identical values can stand only once.

Assay in all cases: two-hybrid; BACTH in E. coli BTH101, same co-transformants; β-galactosidase activity in Miller units, mean of 3 independent assays; negative control with empty vectors 86 ± 11 Miller units
In data set [1] the target is UbiA (Corynebacterium glutamicum ATCC 13032).
The target of data set [2] is DprE2 (Corynebacterium glutamicum ATCC 13032).
In data set [3] the target is AftC (Corynebacterium glutamicum ATCC 13032) (UniProt Q8NPB7).
Data set [4] has as its target AftA (Corynebacterium glutamicum ATCC 13032) (UniProt Q8NTW4).
The target in data set [5] is AftB (Corynebacterium glutamicum ATCC 13032) (UniProt Q8NLR0).
Data set [6] deals with WecA (Corynebacterium glutamicum ATCC 13032).
The target of data set [7] is Emb (Corynebacterium glutamicum ATCC 13032).
Data set [8] deals with the molecule itself.

Take WbbL (enzyme): the β-galactosidase activity in data set [1] was 1090 Miller units and 1200 Miller units.

DprE1 (enzyme): in data set [2], the β-galactosidase activity was 637 Miller units and 1030 Miller units.

On to UbiA (enzyme), for which the figures for the β-galactosidase activity in data set [3], in data set [4] and in data set [5] were 755 Miller units, 387 Miller units and 1020 Miller units, respectively.

Turning to WecA (enzyme), the β-galactosidase activity in data set [6] turned out to be 487 Miller units; in data set [3], 1050 Miller units; in data set [1], 1020 Miller units; in data set [7] it was 1350 Miller units; in data set [5], 1080 Miller units.

B1: AftB (enzyme, Corynebacterium glutamicum ATCC 13032, UniProt Q8NLR0 1-686, looked up)
chain: MTFSPQRPEFETGKQPDPETEHAGDFFEETSSSAPRAASNGSSGPNYTLITTFLAALTAGIFAFWAGWTRKWISDDGLIVLRTVRNLLAGNGPVFNAGERVEANTSTLWQYCIYLVALVTDYRLEDIALWLALLFTTAASIIGVLGTAHLHRKRIAVLLPAGVIGYFSLSPARDFATSGLEWGLSLMWISIQWLLLVLWATSGKTSGKKASGAKTSNPIVNAGAITYALAFWSGLSWLVRPELAMYGGLTGVLLLLTAPRWRVVLGILVAALPLPAAYQIFRMGYYGLMVPHTAVAKSASDAVWGTGWEYVEDFTGPYNLWLGLALLLAAGALTVWKTDKHLAIPKGRLGLRTPGMAIALLVICALVHFLYVIRVGGDFMHGRMLLLPLFAILLPVSVIPVNVVDRGWQDLVALVLVFSTWVWSTVVFVQGHQWENTGQHVVDERDFWIDFTNRDEDHPPLYAEDFLTVDSMNDYAEVMRDQTLVNPTGQQLNILASSDPTTYSWITTPRVEGVEAGDLANLSPTVFHVNLGMTSMNAPLNVRVTDLIGLATPLAARQPRIEGGRIGHDKLMDLEWQVAESATPLAYTPGWLDTQKTYEARQALRHPELVHLFQTYREPMSYHRFVDNIKYALTTGRTLEISDNPEDLLKEFNPTPAEIQDGLETIAWPGEIKLDEPRGEPLYSSQ
notes: AftB, arabinofuranosyltransferase, transmembrane, Corynebacterium glutamicum ATCC 13032; gene amplified from genomic DNA; One molecule for all four fusion forms; also called arabinofuranosyltransferase AftB; AftB-T25^N; source: E. coli BTH101, bacterial two-hybrid (BACTH) fusion; not shown: T25 or T18 fragment of Bordetella pertussis adenylate cyclase, N-terminal or C-terminal (each tested), kept
In data set [8], B1 showed a β-galactosidase activity of 1180 Miller units.

B2: AftA (enzyme, Corynebacterium glutamicum ATCC 13032, UniProt Q8NTW4 1-661, looked up)
chain: MNPYGPSRVPEGEVYRPDRLNRKATLVAIVGAAILAFAFALVLWMGLKQTNLPAFGPSNVTRAVASATIAAVLIVTGFLTWLWLRDEHQSNPRWELEDVKPRPKWRTALTYLASYLSPAALVVAVLAIPLSATRLYLDGISVDQGFRTQFLTRMADDIGLSDMNYIDMPTFYPAGWFWLGGRLANLLGLPGWEAFQPWAIVSMAVAASVLVPVWQRITGSLPVATGIALVTTCIILAMNSEEPYAAIVAMGIPAMLVLASRIAKGDKFALAGGIIYLGVSATFYTLFTGAIALSAVAVCIVVAAIVQRSIKPLLWLAVLGGGSIVIALISWGPYLLASINGAERSGDSATHYLPLEGTQFPVPFLASSVVGLLCLVGLIYLVVRFHNNEVRAMWVGIAVFYAWMGMSMAITLLGNTLLGFRLDTVLVLIFATAGVLGIADFRLASVYQLYPTQITERTATHLTNLIVVLVLLGGLYYAQDLPQKNARAIDLAYTDTDGYGERADLYPAGAARYYKDINDHLLDQGFEPSETVVLTDELDFMSYYPYRGYQAFTSHYANPLGEFGNRNAFIEDLAIRSWDELADPQQFSDALNTSPWTIPEVFIFRGSIDDPDAGWKYDVAEDLYPNNPNVRFRGVYFNPESFDQMWQTKQVGPFVVVTHNE
notes: AftA, arabinofuranosyltransferase, transmembrane, Corynebacterium glutamicum ATCC 13032; gene amplified from genomic DNA; One molecule for all four fusion forms; also called arabinofuranosyltransferase AftA; AftA-T25^N; source: E. coli BTH101, bacterial two-hybrid (BACTH) fusion; not shown: T25 or T18 fragment of Bordetella pertussis adenylate cyclase, N-terminal or C-terminal (each tested), kept
In the case of B2, the β-galactosidase activity in data set [8] stood at 714 Miller units.

B3: AftC (enzyme, Corynebacterium glutamicum ATCC 13032, UniProt Q8NPB7 1-418, looked up)
chain: MSFSPVAPSISAPTPRRSRWDSIGNAVAWPLAMLLMAHRFFVLAINGAVTDDFTTVYSALRRFVEGIPVYNEVYHFVDPHYLYNPGATLLLAPLGYITHFTLARWMFIAVNLLAIVLAFGLLTRLSGWALRSMVWPIAIALAMLTETVQNTLIFSNINGILLLMLAIFLWCVVHKKSWLGGLVIGLAILIKPMFLPLLFLPLVKKQWGSLILGILTPVIFNAVAWFLVPGASEYVTRTMPYLGETRDFANSSLPGLAIYFGMPTWMEITWFLIFGAMVGLAVLALLRFRNTEPYFWAATTTGVLLTGVFFLSSLGQMYYSMMIFPMIFTLLGSRSVFHNWVAWVAAYFFLSPDTFTSQRLPDVARWMEFFSATVGWGLLIVVTFVSALIWFIGDIRAKGTPSSPITTDPTHDHLERTA
notes: AftC, arabinofuranosyltransferase, transmembrane, Corynebacterium glutamicum ATCC 13032; gene amplified from genomic DNA; One molecule for all four fusion forms; also called arabinofuranosyltransferase AftC; AftC-T25^C; source: E. coli BTH101, bacterial two-hybrid (BACTH) fusion; not shown: T25 or T18 fragment of Bordetella pertussis adenylate cyclase, N-terminal or C-terminal (each tested), kept
As for B3, the β-galactosidase activity in data set [8] was 398 Miller units.
